Reference: patent US20230265179A1 (TWIST BIOSCIENCE, published 2023)

T1: IL1RL1 over-expressed on Expi293 cells (UniProt Q01638 19-556, limits assumed)
T1 construct: whole, on cells; Target of the flow cytometry MFI ratio (over-expressing cells over parent cells); also called cytokine over-expressing Expi293 cells
T1 sequence (looked up): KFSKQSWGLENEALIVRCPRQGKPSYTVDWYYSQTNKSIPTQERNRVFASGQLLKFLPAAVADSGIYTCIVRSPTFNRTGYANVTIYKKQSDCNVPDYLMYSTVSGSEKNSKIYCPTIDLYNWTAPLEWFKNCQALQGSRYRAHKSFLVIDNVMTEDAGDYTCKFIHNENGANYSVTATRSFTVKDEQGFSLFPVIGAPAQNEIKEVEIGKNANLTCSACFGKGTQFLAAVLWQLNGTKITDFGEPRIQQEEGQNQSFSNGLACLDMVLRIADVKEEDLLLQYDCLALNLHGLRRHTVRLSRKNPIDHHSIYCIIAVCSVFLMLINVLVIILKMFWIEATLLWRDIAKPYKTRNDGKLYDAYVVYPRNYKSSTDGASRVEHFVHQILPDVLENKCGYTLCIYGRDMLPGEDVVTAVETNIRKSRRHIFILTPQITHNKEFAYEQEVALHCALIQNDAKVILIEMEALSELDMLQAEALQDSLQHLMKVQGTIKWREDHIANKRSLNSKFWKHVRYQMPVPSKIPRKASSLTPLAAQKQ

T2: IL1RL1 (UniProt Q01638 19-328, limits assumed)
T2 construct: SPR analyte
T2 sequence (looked up): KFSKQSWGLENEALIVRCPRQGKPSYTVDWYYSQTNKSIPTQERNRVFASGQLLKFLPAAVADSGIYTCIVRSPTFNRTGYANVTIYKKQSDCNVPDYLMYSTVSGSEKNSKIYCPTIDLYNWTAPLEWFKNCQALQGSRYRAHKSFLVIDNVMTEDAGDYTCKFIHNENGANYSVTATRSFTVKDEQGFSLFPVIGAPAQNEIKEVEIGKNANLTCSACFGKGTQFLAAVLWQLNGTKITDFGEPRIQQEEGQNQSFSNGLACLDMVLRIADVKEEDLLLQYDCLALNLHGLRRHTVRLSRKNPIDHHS

B1: IL1RL1-77 (Fc fusion, not shown: a dimerising Fc or GST)
VHH: EVQLVESGGGLVQPGGSLRLSCAASGRTFSSYVMGWFRQAPGKEREFVAVIIDSRTTKYADSVKGRFTISADNSKNTAYLQMNSLKPEDTAVYYCAAVGGATTVTASEWDWGQGTLVTVSS
notes: VHH-Fc on IgG2 Fc
B2: IL1RL1-51 (Fc fusion, not shown: a dimerising Fc or GST)
VHH: EVQLVESGGGLVQPGGSLRLSCAASGVTLDLYAMGWFRQAPGKEREWVSSIGIAGTPTFYADSVKGRFTISADNSKNTAYLQMNSLKPEDTAVYYCAANYGGSVLYNWGQGTLVTVSS
notes: VHH-Fc on IgG2 Fc
B3: IL1RL1-41 (Fc fusion, not shown: a dimerising Fc or GST)
VHH: EVQLVESGGGLVQPGGSLRLSCAASGGTLSSYIMGWFRQAPGKEREGVAAIDSDGSTSYADSVKGRFTISADNSKNTAYLQMNSLKPEDTAVYYCAARPVRVDDISLPVGFDWGQGTLVTVSS
notes: VHH-Fc on IgG2 Fc
B4: IL1RL1-37 (Fc fusion, not shown: a dimerising Fc or GST)
VHH: EVQLVESGGGLVQPGGSLRLSCAASGGTFGSYAMGWFRQAPGKEREFVAAINWSGARTYYADSVKGRFTISADNSKNTAYLQMNSLKPEDTAVYYCAVSQPLNYYTYYDARRYDWGQGTLVTVSS
notes: VHH-Fc on IgG2 Fc
B5: IL1RL1-42 (Fc fusion, not shown: a dimerising Fc or GST)
VHH: EVQLVESGGGLVQPGGSLRLSCAASGFILDYYAMGWFRQAPGKEREWVSSIGIAGTPTFYADSVKGRFTISADNSKNTAYLQMNSLKPEDTAVYYCAGRLSNGLDWGQGTLVTVSS
notes: VHH-Fc on IgG2 Fc
B6: IL1RL1-43 (Fc fusion, not shown: a dimerising Fc or GST)
VHH: EVQLVESGGGLVQPGGSLRLSCAASGRTYAMGWFRQAPGKEREWVASISTSGSTITPYADSVKGRFTISADNSKNTAYLQMNSLKPEDTAVYYCAANVASGLKILQWGQGTLVTVSS
notes: VHH-Fc on IgG2 Fc

The binders below were run against T1, IL1RL1 over-expressed on Expi293 cells (assay: flow cytometry, 100 nM antibody, over-expressing Expi293 / parent cells).
Procedure: All incubations and washes were in buffer containing PBS+1% BSA. MFI Ratio is defined by the mean fluorescence intensity (MFI) of the cytokine over-expressing Expi293 cell over the Expi293 parent cell. […] EC50 was calculated in GraphPad Prism.
With B1 the “100 nM FACS (MFI Ratio)” value was 1.12 MFI ratio. With B2 the “100 nM FACS (MFI Ratio)” value was 1.28 MFI ratio. With B3 the “100 nM FACS (MFI Ratio)” value was 0.55 MFI ratio. In the case of B4, the “100 nM FACS (MFI Ratio)” value is reported as 1.25 MFI ratio. In the case of B5, the “100 nM FACS (MFI Ratio)” value is reported as 0.86 MFI ratio. With B6 the “100 nM FACS (MFI Ratio)” value was 1.25 MFI ratio.

Each binder was assayed against T2, IL1RL1 (assay: SPR (Carterra LSA), antibody amine-coupled).
Procedure: SPR experiments were performed on a Carterra LSA SPR biosensor equipped with a HC30M chip at 25° C. in HBS-TE. Antibodies were diluted to 10 μg/mL and amine-coupled to the sensor chip by EDC/NHS activation, followed by ethanolamine HCl quenching. Increasing concentrations of analyte were flowed over the sensor chip in HBS-TE with 0.5 mg/mL BSA with 5-minute association and 15-minute dissociation. Following each injection cycle the surface was regenerated with 2× 30-second injections of IgG elution buffer (Thermo). Data were analyzed in Carterra's Kinetics Tool software with 1:1 binding model.
B1: no binding. B2: no binding. B3: no binding. B4: no binding. B5: no binding. B6: no binding.
